From US20030119038A1, “NARC1, novel subtilase-like homologs” (priority 1999, published 2003)
“Also recorded” adds a separate entry of the source.

Tests used:
[1] = test system: NARC1 transfectants
Protocol: Following transient expression of this construct in CGNs, the percentage of GFP positive and GFP negative cells undergoing apoptosis was determined by Laser-Scanning Cytometry.
Following transient expression of the wild-type and point-mutant NARC1 constructs in CGNs, the percentage of GFP-positive cells undergoing apoptosis was determined by Laser-Scanning Cytometry.
(§1) The serine protease inhibitors Aminoethyl-benzene sulfonyl fluoride, an irreversible inhibitor (AEBSF), Aprotinin, a reversible inhibitor, and N-Tosyl-lysine-chloromethylketone (TLCK, an inhibitor known to covalently bind to serine proteases) were investigated to see if any of these reagents can rescue the cell death effects of wild-type NARC1. Caspase 9 transfection was included to test for specificity of any rescue effects.
CGNs were transfected with each of the C-terminal truncation mutants described above. Following transient expression of these constructs, the percentage of GFP positive cells undergoing apoptosis was determined by Laser-Scanning Cytometry.

[2] = test system: Caspase 9 transfection; conditions: 24-hour exposure
Source text: as §1

[3] = test system: furin; conditions: Bathurst (1987); cited from earlier work
[4] = target: furin (Homo sapiens, UniProt P09958); conditions: cited from earlier work
[5] = test system: Ntera2 cells; experiment: NARC1-EGFP transfection of Ntera2 cells, nuclear area condensation; format: cell-based, human; conditions: C-terminal EGFP constructs, 24 hours
Protocol: Specifically, Ntera2 cells were transfected with C-terminal EGFP constructs of wild-type NARC1, each of the point-mutant NARC1s, and caspase 9. At 24 hours, nuclear area condensation was assessed for the entire Ntera2 cell population and compared to nuclear area condensation for the transfected cell population.

[6] = test system: SY5Y cells; experiment: NARC1 overexpression in SY5Y cells, nuclear condensation by Hoechst assay; format: cell-based, human
Protocol: Wild-type and mutant NARC1 were overexpressed in SY5Y cells (a human neuroblastoma cell line). Nuclear condensation was assessed by Hoechst assay.

[7] = test system: NARC1; experiment: Autoprocessing of NARC1 transiently expressed in COS-7 cells, Western blotting; format: cell-based, rat; conditions: for Autoprocessing Activity: C-terminal myc/His fusion transiently expressed in COS-7 cells, 60 kD processing product on Western blot
Protocol: The wild-type NARC1-myc/His clone was transiently expressed in COS-7 cells. The cells were then harvested, lysed, and the protein extracted. Polyacrylamide gel electrophoresis was then carried out on the protein extracts, followed by Western blotting. The resulting membranes were probed using both anti-myc- and NARC1-specific antibodies. Routine techniques and protocols were followed. See, e.g., Ausubel et al.(1998), supra.
This cleavage event maps to approximately the junction between the pro-domain and the enzymatic domain.
Autoprocessing of NARC1 was investigated as follows. COS-7 cells were co-transfected with the following EGFP and myc plasmids: (A) wild-type NARC1-myc and wild-type NARC1-EGFP; (B) S385A NARC1-myc and S385A NARC1-EGFP; and (C) wild-type NARC1-myc and S385A NARC1-myc. The cells were then harvested, lysed, and the protein extracted. Polyacrylamide gel electrophoresis was then carried out on the protein extracts, followed by Western blotting. The resulting membranes were sequentially probed using first the anti-myc and then the anti-EGFP monoclonal antibodies (Abs). Thus, the experiment allowed sequential detection of the separate NARC1 products encoded from the two co-transfected plasmids.
As indicated above, a series of C-terminal truncation mutants were generated. The truncation NARC1-myc/His clones were transiently expressed in COS-7 cells. The cells were then harvested, lysed, the protein extracted, and polyacrylamide gel electrophoresis carried out on the protein extracts. Western analysis was then carried out using both anti-myc and NARC1-specific antibodies.

[8] = test system: cerebellar granule neurons (CGNs); experiment: Apoptosis after transient expression of NARC1-EGFP constructs in CGNs, Laser-Scanning Cytometry; format: cell-based, rat; conditions: EGFP construct transiently expressed in CGNs, percentage of GFP-positive cells undergoing apoptosis
Source text: Cerebellar granule neurons (CGNs) were transfected with a NARC1-enhanced green fluorescent protein (EGFP) expression construct (with the EGFP sequences located at the carboxy terminus of the fusion protein). Unless otherwise indicated, the construct utilized in the following experiments contained 2073 base pairs of the rat NARC1 transcript set forth in FIG. 5. Specifically, this corresponds to nucleotides 205-2277 and amino acid residues 56-746 of SEQ ID NO:4 and SEQ ID NO:3, respectively. The polypeptide sequence encoded by the NARC1 insert utilized herein has been set forth as SEQ ID NO:9 herein. The nucleotide sequence of this insert has been set forth as SEQ ID NO:10.
To investigate NARC1-mediated neuronal cell death, transient expression of the EGFP clones was carried out in cerebellar granule neurons (CGNs). These studies are set forth in detail as follows.

[9] = target: T1, NARC1 (Rattus norvegicus, UniProt P59996); experiment: Autoprocessing of NARC1 expressed in E. coli
T1 construct: made in house; host or cells: E. coli
Protocol: The N-terminus of the processed protein was determined by protein microsequencing.

furin (Homo sapiens, UniProt P09958), sequence (P09958 108-794, species assumed): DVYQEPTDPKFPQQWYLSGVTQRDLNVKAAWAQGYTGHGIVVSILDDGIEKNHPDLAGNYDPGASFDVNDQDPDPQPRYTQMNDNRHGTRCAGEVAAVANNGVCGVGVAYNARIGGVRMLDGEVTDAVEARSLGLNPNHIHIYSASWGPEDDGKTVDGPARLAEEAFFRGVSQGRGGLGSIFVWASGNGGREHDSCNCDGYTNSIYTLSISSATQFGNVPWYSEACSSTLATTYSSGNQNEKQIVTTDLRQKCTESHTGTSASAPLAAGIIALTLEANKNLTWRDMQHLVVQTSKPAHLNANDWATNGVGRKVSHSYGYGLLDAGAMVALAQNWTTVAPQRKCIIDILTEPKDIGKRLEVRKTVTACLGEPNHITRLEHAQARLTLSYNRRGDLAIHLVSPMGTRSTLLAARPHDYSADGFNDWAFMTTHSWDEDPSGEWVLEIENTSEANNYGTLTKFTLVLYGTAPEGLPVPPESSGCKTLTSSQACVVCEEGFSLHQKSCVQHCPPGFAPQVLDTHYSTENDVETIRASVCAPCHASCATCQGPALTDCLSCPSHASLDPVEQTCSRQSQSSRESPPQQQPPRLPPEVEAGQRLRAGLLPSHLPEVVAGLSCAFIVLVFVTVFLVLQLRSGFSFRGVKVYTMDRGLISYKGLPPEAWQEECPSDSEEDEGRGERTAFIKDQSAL

Aminoethyl-benzene sulfonyl fluoride [AEBSF]
Rescue of cell death in NARC1 transfectants ([1]; 24-hour exposure): dose-dependent rescue of cell death
Toxicity ([1]; 48-hour exposure): appeared toxic
Rescue of Caspase 9-induced cell death [2]: substantial rescue

variant of α1-antitrypsin: α1-antitrypsin variant with replacement of the reactive-site MET residue by ARG; protein-based furin inhibitor
Inhibition of in vitro conversion of proalbumin [3]: inhibit the in vitro conversion of proalbumin

α1-PDX: α1-antitrypsin variant in which reactive center ALA-ILE-PRO-MET is replaced by ARG-ILE-PRO-ARG
Inhibition of cleavage of viral envelope glycoproteins, including HIV gp160 [4]: inhibit the cleavage of viral envelope glycoproteins

B1: wild-type NARC1: rat NARC1 subtilase-like protein, residues 56-746 of SEQ ID NO:3, expressed as C-terminal EGFP or myc/His fusion (protein)
chain: MGIRCSTWLRWPLSPQLLLLLLLCPTGSRAQDEDGDYEELMLALPSQEDSLVDEASHVATATFRRCSKEAWRLPGTYVVVLMEETQRLQVEQTAHRLQTWAARRGYVIKVLHVFYDLFPGFLVKMSSDLLGLALKLPHVEYIEEDSLVFAQSIPWNLERIIPAWQQTEEDSSPDGSSQVEVYLLDTSIQSGHREIEGRVTITDFNSVPEEDGTRFHRQASKCDSHGTHLAGVVSGRDAGVAKGTSLHSLRVLNCQGKGTVSGTLIGLEFIRKSQLIQPSGPLVVLLPLAGGYSRILNTACQRLARTGVVLVAAAGNFRDDACLYSPASAPEVITVGATNAQDQPVTLGTLGTNFGRCVDLFAPGKDIIGASSDCSTCYMSQSGTSQAAAHVAGIVAMMLNRDPALTLAELRQRLILFSTKDVINMAWFPEDQRVLTPNRVATLPPSTQETGGQLLCRTVWSAHSGPTRTATATARCAPEEELLSCSSFSRSGRRRGDRIEAIGGQQVCKALNAFGGEGVYAVARCCLLPRVNCSIHNTPAARAGPQTPVHCHQKDHVLTGCSFHWEVENLRAQQQPLLRSRHQPGQCVGHQEASVHASCCHAPGLECKIKEHGIAGPAEQVTVACEAGWTLTGCNVLPGASLPLGAYSVDNVCVARIRDAGRADRTSEEATVAAAICCRSRPSAKASWVHQ
modifications: C-terminal EGFP or myc/His tag; rattus norvegicus
Sensitivity of cells to expression (nuclear area condensation) [5]: some sensitivity
Promotion of cell death (nuclear condensation) [6]: does not promote cell death
Autoprocessing Activity [7]: normal autoprocessing
Intermolecular cleavage of co-expressed S385A mutant ([7]; COS-7 cells co-transfected with wild-type and S385A NARC1 carrying different tags, anti-myc then anti-EGFP Western): absence of intermolecular cleavage
Resulting Cell Death Activity [8]: moderately pro-apoptotic
Resulting Cell Death Activity ([8]; listed as NARC1-EGFP): increase in apoptosis
Autoprocessing [9]: underwent autoprocessing

B2: H225W, S385A: Full-length NARC1 double mutant; active site histidine and serine mutated (protein)
chain: MGIRCSTWLRWPLSPQLLLLLLLCPTGSRAQDEDGDYEELMLALPSQEDSLVDEASHVATATFRRCSKEAWRLPGTYVVVLMEETQRLQVEQTAHRLQTWAARRGYVIKVLHVFYDLFPGFLVKMSSDLLGLALKLPHVEYIEEDSLVFAQSIPWNLERIIPAWQQTEEDSSPDGSSQVEVYLLDTSIQSGHREIEGRVTITDFNSVPEEDGTRFHRQASKCDSWGTHLAGVVSGRDAGVAKGTSLHSLRVLNCQGKGTVSGTLIGLEFIRKSQLIQPSGPLVVLLPLAGGYSRILNTACQRLARTGVVLVAAAGNFRDDACLYSPASAPEVITVGATNAQDQPVTLGTLGTNFGRCVDLFAPGKDIIGASSDCSTCYMSQSGTAQAAAHVAGIVAMMLNRDPALTLAELRQRLILFSTKDVINMAWFPEDQRVLTPNRVATLPPSTQETGGQLLCRTVWSAHSGPTRTATATARCAPEEELLSCSSFSRSGRRRGDRIEAIGGQQVCKALNAFGGEGVYAVARCCLLPRVNCSIHNTPAARAGPQTPVHCHQKDHVLTGCSFHWEVENLRAQQQPLLRSRHQPGQCVGHQEASVHASCCHAPGLECKIKEHGIAGPAEQVTVACEAGWTLTGCNVLPGASLPLGAYSVDNVCVARIRDAGRADRTSEEATVAAAICCRSRPSAKASWVHQ
modifications: mutant of rat sequence mutating amino acid His225Trp and Ser385Ala of SEQ ID NO9
Sensitivity of cells to expression (nuclear area condensation) [5]: equally sensitive
Autoprocessing Activity [7]: eliminate NARC1 autoprocessing; also recorded: Absence of processing
Autoprocessing Activity ([7]; listed as double mutant): absence of autoprocessing
Resulting Cell Death Activity [8]: somewhat reduce the pro-apoptotic effect; also recorded: Reduced activity
Resulting Cell Death Activity ([8]; listed as double mutant): reduced, but still substantial, pro-apoptotic effect
